Experimental data published in patent US20230135471A1, “UBIQUITIN VARIANTS WITH IMPROVED AFFINITY FOR 53BP1” (Integrated DNA Technologies, Inc., priority 2021, published 2023).

Assays:
[1] = biological target: 53BP1 (amino acids 1484-1603) fused to MBP (Homo sapiens, UniProt Q12888); assay: Biolayer interferometry (BLI) of purified His-tagged Ubvs, 1:1 binding model global fit; conditions: 1:1 binding model, global fit over all 53BP1 concentrations
Method: In order to assess the effect of mutations identified from the two-hybrid screen on the affinity of the Ubvs for 53BP1, Ubvs consisting of the i53 sequence with an N-terminal His tag and short flexible linker plus individual or combinations of screen-identified mutations were purified from E. coli (Table 3). Biolayer interferometry was used to measure the affinity of the purified proteins. Briefly, a purified Ubv was diluted in reaction buffer (1×PBS pH7.4, 0.1 mg/mL BSA, 0.001% Tween 20) to 2 ug/mL. Purified 53BP1 (amino acids 1484-1603) fused to MBP was diluted in reaction buffer to between 20 μM and 10 nM (Table 3, Table 4)). For each Ubv, 8 Ni-NTA sensor tips were hydrated and then loaded with the 2 ug/ml of a Ubv for 30 seconds. Sensor tips were then incubated in reaction buffer for 45 seconds to obtain a baseline. Tips were then moved into either empty buffer or seven different concentrations of purified 53BP1 and the association was measured. Tips were then moved back into reaction buffer and the dissociation was measured. Kon, Koff, and Kd were calculated using a 1:1 binding model using a global fit (Table 4).
A second experiment was performed using CM1 and CM7 using a longer association time (360 seconds) to allow binding to closer approach equilibrium. The BLI response vs 53BP1 fragment concentration was plotted in prism to calculate the Kd using a one site-specific binding nonlinear fit model. An i53 response was plotted on the same graph however the association time used (90 seconds) was shorter due to needing a shorter time to reach equilibrium because of the fast off rate of i53 (FIG. 5B, FIG. 5C, Table 4).

[2] = biological target: T1, fragment of 53BP1 (a.a. 1221-1718) (Homo sapiens, UniProt Q12888); assay: BACTH two-hybrid pooled screen in E. coli, FACS sorting of GFP positive cells and NGS enrichment of i53 amino acid changes; type: cell-based; conditions: i53 (SEQ ID NO: 2) background; for Rep 1 Enrichment / Rep 2 Enrichment: log2 enrichment of amino acid change in GFP positive vs input, normalised to synonymous changes; for Average Enrichment / Experiment 1 - high selection pressure Average Enrichment / Experiment 2-low selection pressure Average Enrichment: average of Rep 1 and Rep 2; for Average Enrichment: log2 enrichment; for Experiment 1 - high selection pressure Average Enrichment / Experiment 2-low selection pressure Average Enrichment: log 2 enrichment; for Experiment 1 - high selection pressure Rep 1 Enrichment / Experiment 2-low selection pressure Rep 1 Enrichment: replicate 1; for Experiment 1 - high selection pressure Rep 1 Enrichment / Experiment 1 - high selection pressure Rep 2 Enrichment / Experiment 2-low selection pressure Rep 1 Enrichment / Experiment 2-low selection pressure Rep 2 Enrichment: enrichment = log 2 of positive/input read count ratio normalised to synonymous changes; for Experiment 1 - high selection pressure Rep 2 Enrichment / Experiment 2-low selection pressure Rep 2 Enrichment: replicate 2
T1 construct: a fragment of 53BP1 (a.a. 1221-1718); expressed in transfected cells; host or cells: E. coli DHM1
T1 sequence (Q12888 1221-1718): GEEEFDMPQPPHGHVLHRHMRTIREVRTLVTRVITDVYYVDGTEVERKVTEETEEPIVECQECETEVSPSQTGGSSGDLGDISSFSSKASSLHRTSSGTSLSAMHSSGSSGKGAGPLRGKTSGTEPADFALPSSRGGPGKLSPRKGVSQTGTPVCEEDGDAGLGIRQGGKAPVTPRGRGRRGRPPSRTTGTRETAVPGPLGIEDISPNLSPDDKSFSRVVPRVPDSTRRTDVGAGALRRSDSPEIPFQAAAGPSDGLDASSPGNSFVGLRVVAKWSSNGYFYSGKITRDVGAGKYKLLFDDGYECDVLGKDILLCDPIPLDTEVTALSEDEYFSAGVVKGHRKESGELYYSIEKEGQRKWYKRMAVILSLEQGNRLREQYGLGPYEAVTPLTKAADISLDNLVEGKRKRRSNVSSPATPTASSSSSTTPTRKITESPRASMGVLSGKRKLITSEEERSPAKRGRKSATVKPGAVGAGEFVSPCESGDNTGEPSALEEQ
Source text: (§1) In order to identify mutations that improve the affinity of i53 for 53BP1, the bacterial adenylate cyclase two-hybrid system (BACTH system) was used to screen for interaction between the two proteins. This method makes use of a B. pertussis calmodulin-dependent adenylate cyclase toxin. The catalytic domain of the toxin can be separated into two fragments (T18 and T25) that are able to associate in the presence of calmodulin but have minimal activity in its absence. If bait and prey proteins fused to T18 and T25 interact, then the catalytic activity is restored and cAMP is produced. In E. coli, cAMP binds to catabolite activator protein (CAP) that acts as a transcriptional activator for several genes. By expressing these fusion proteins in an E. coli strain that lacks endogenous adenylate cyclase and naturally lacks calmodulin, cAMP regulated protein expression can be used as a readout of bait-prey interaction. We engineered the screen so that eGFP will be expressed under the control of a cAMP-regulated promoter. The coding sequence for a fragment of 53BP1 (a.a. 1221-1718) containing the i53 interacting regions and i53 were cloned into T18 and T25 adenylate cyclase expression plasmids such that fusion proteins of each would be expressed. If a Ubv interacts with 53BP1, the T18 and T25 fragments will be brought together, adenylate cyclase activity will be restored, cAMP will be produced, and some portion of the bacterial population will be GFP positive.
A plasmid library was made consisting of Ubv-adenylate cyclase fragment fusion protein plasmids that had on average a single codon within the i53 coding region exchanged for a random NNK codon. Plasmids were transformed into DHM1 cells that lack endogenous adenylate cyclase and contain the plasmid for expression of the 53BP1 fragment fused to one of the adenylate cyclase fragments. Expression of eGFP was used as a readout of bait-prey interaction using fluorescence activated cell sorting (FACS) to sort for GFP positive bacteria. Plasmid DNA was isolated from both the sorted GFP positive bacteria (Positive) and from the original pre-sort population (Input) and was sequenced using NGS. Counts were merged for mutations that result in the same amino acid change using Enrich2 [25]. Enrichment was calculated as enrichment=log 2((read count for an amino acid change in the positive population/read count for an amino acid change in the input)/(synonymous change read count in the positive population/synonymous change read count in the input)). […] For each experiment, DHM1 cells were transformed with the Ubv fusion protein plasmid library in two separate replicates using a gene pulser (Bio-Rad). The i53-adenylate cyclase fragment fusion protein (published i53 peptide, SEQ ID NO:2) plasmid was also introduced separately as a control to estimate selection pressure. Cells were then grown and sorted using FACS and GFP positive cells were collected. Two separate experiments were conducted on separate days using different levels of selection pressure resulting in a different percent GFP positive for the i53 population (i.e. for cells that express published i53 peptide (SEQ ID NO:2) fused to one of the adenylate cyclase fragments).
(§2) There was a high degree of correlation between the two experiments and between replicates (FIG. 2). From these screens, about 230 amino acid changes were identified for which the average enrichment was positive for at least one of the experiments (Table 1). […] To validate that the amino acid changes identified from the pooled screen are reproducible on an individual basis, 24 amino acid changes identified from this screen were introduced individually into the i53 fusion protein plasmid and tested by flow cytometry for their effect on the percent positive population relative to i53 (FIG. 3). There was a strong correlation between the enrichment measured from the pooled screen and the percent reporter positive cells when mutations were screened individually.

[3] = biological target: T1, fragment of 53BP1 (a.a. 1221-1718); assay: Individual two-hybrid screen of amino acid changes, percent GFP (reporter) positive cells by flow cytometry; type: cell-based; parameters: key to Dunnett's Multiple Comparison Summary: NS means not significant; *, **, ***, **** reflects qualitative measure of the strength of association the Ubv has with 53BP1 compared to the similar association of i53 with 53BP1.; *, **, ***, **** reflects qualitative measure of the strength of association the Ubv has with 53BP1 compared to the similar association of i53 with 53BP1.; *, **, ***, **** reflects qualitative measure of the strength of association the Ubv has with 53BP1 compared to the similar association of i53 with 53BP1.; *, **, ***, **** reflects qualitative measure of the strength of association the Ubv has with 53BP1 compared to the similar association of i53 with 53BP1; conditions: for Dunnett's Multiple Comparison Summary: comparison i53 vs. i53 + amino acid change; for Percent GFP Positive Rep 1: replicate 1, amino acid change in i53 fusion protein plasmid; for Percent GFP Positive Rep 2: replicate 2; for Percent GFP Positive Rep 3: replicate 3
Source text: as §1, §2

[4] = Experiment 1 - high selection pressure
[5] = Experiment 2 - low selection pressure

Chain of 53BP1 (amino acids 1484-1603) fused to MBP (Q12888 1484-1603, looked up): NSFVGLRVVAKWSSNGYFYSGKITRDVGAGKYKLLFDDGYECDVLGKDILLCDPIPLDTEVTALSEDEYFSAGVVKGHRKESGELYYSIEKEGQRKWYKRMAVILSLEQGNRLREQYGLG

Substance	Rep 1 Enrichment [2, 4]	Rep 2 Enrichment [2, 4]	Average Enrichment [2, 4]	Rep 1 Enrichment [2, 5]	Rep 2 Enrichment [2, 5]	Average Enrichment [2, 5]	Dunnett's Multiple Comparison Summary [3]	Percent GFP Positive Rep 1 [3] [%]	Percent GFP Positive Rep 2 [3] [%]	Percent GFP Positive Rep 3 [3] [%]	Experiment 1 - high selection pressure Average Enrichment [2]	Experiment 1 - high selection pressure Rep 1 Enrichment [2]	Experiment 1 - high selection pressure Rep 2 Enrichment [2]	Experiment 2-low selection pressure Average Enrichment [2]	Experiment 2-low selection pressure Rep 1 Enrichment [2]	Experiment 2-low selection pressure Rep 2 Enrichment [2]	KD (M) [1]
i53 DM: 53BP1 binding deficient i53 variant with P69L, L70V [reference compound]	–	–	–	–	–	–	–	–	–	–	–	–	–	–	–	–	Response was too low to get a good fit to the data
K48T: i53 with amino acid change K48T	1.20	1.08	1.14	0.84	0.66	0.75	ns	16.9	14	14.5	–	–	–	–	–	–	–
i53 K6R: i53 with K6R	1.84	1.91	1.87	1.22	0.80	1.01	**	19.8	27	24	–	–	–	–	–	–	–
K29M: i53 with amino acid change K29M	1.72	1.48	1.60	1.23	0.57	0.90	ns	23.9	16.5	17.8	–	–	–	–	–	–	–
H68M: i53 with amino acid change H68M	–	–	–	–	–	–	***	28.6	23.5	28.3	2.28	2.53	2.04	1.28	0.99	1.58	–

Second part, led by results:

Rep 1 Enrichment [2, 4]	Rep 2 Enrichment [2, 4]	Average Enrichment [2, 4]	Rep 1 Enrichment [2, 5]	Rep 2 Enrichment [2, 5]	Average Enrichment [2, 5]	Dunnett's Multiple Comparison Summary [3]	Percent GFP Positive Rep 1 [3] [%]	Percent GFP Positive Rep 2 [3] [%]	Percent GFP Positive Rep 3 [3] [%]	Experiment 1 - high selection pressure Average Enrichment [2]	Experiment 1 - high selection pressure Rep 1 Enrichment [2]	Experiment 1 - high selection pressure Rep 2 Enrichment [2]	Experiment 2-low selection pressure Average Enrichment [2]	Experiment 2-low selection pressure Rep 1 Enrichment [2]	Experiment 2-low selection pressure Rep 2 Enrichment [2]	Substance	KD (M) [1]
0.99	1.25	1.12	0.96	0.70	0.83	ns	20.9	14.2	12.3	–	–	–	–	–	–	V26I: i53 with amino acid change V26I	–
1.10	1.02	1.06	0.75	0.59	0.67	ns	15.9	17.6	17.2	–	–	–	–	–	–	I61L: i53 with amino acid change I61L	–
0.85	1.15	1.00	0.97	0.80	0.88	ns	18.8	13.6	17.7	–	–	–	–	–	–	S49L: i53 with amino acid change S49L	–
–	–	–	–	–	–	****	36.2	29.2	39.5	2.61	2.69	2.52	1.43	1.58	1.28	L73M: i53 with amino acid change L73M	–
2.08	1.93	2.01	1.40	0.39	0.89	ns	24.2	11.2	21.5	–	–	–	–	–	–	L67K: i53 with amino acid change L67K	–
1.70	0.87	1.28	0.75	0.59	0.67	ns	17.5	7.7	12.8	–	–	–	–	–	–	A44T: i53 with amino acid change A44T	–
